{
  "source": "the DeepSol protein solubility set",
  "data": [
    {"experiment": "soluble on expression in E. coli; label from the status in PepcDB or PDB records", "values": [
      {"sequence": "MGSDKIHHHHHHAEDYMETDKGHDTLTLTVNQQEIVLNEKNHTQEALTLSWTTGTNYGSGNRISYTLEIAKAGTDFARAYSVDLGTGTYQWTKKTEELNQFLNTQLGVGYAEKVSLEARITATVAGMEEKEQRATVALDVTTYQPVTPTLYLIGEAAPNGWSADQATPMERTDNGQFTWTGKLNTGVFKFITTLGEFLPSYNRDAAAGEELRLIYRTSGDEPDEPFTVSKEATYIVKVDLLDLTMTMTETENIGWRFEEFYIVGSFTGDNGWGFEALSKDAVQMNLFHYGAVIPWKADGDFKFTSVTDFGQSDAFFHPTEGNAPYTSTSVVLGGEDNKWQMKESECGKAYKVLFLTAKGKEKMLMRPFTPYEGLYLVGDATPNGWSIDNATPMAKSADSPYIFTWSGTLNTGEMKISCDKQSDWNGDWLMADKSGKAPTGEVETALFTSKTDAELKNMYPDTDLGSLDNKWNIQEAGSYRITIDQLKETISIVKQ", "soluble on expression in E. coli": "not soluble"},
      {"sequence": "MLPPPRREPDWSAQAFRWHRQGLAGWLEAVHEPHAVALDRLACVDAQREQLLANTRQFVAGLPANNVLLTGARGTGKSSLVKALLPEFGRDGLRLIEIDREHLADLPQLVELLSGRPERFVLFCDDLSFEHGDAGYKALKSALDGGLARRCDNLLVYATSNRRHLLPEQMSENREGWLRDGEIHPGEAVEEKVSLSDRFGLWLSFYPFDQDAYLAAVREWLGHFGLKYGDKAERAALQWSLSRGSRSGRVAWQFACHWAGSQKLARRSGKKLEHHHHHH", "soluble on expression in E. coli": "not soluble"},
      {"sequence": "MGSDKIHHHHHHENLYFQGMKQIPQDFRLIEDFFRTRRSVRKFIDRPVEEEKLMAILEAGRIAPSAHNYQPWHFLVVREEEGRKRLAPCSQQPWFPGAPIYIITLGDHQRAWKRGAGDSVDIDTSIAMTYMMLEAHSLGLGCTWVCAFDQALCSEIFDIPSHMTPVSILALGYGDPTVPPREAFNRKTIEEVVSFEKL", "soluble on expression in E. coli": "soluble"},
      {"sequence": "VIGDMNPDFLGSVSTGLTWKNLSFRMALDMRFGGKVAVYGNRYGTAYGWTESSLKFRDEAHGGMTWTSQYLNADGSQSGSYGVTYHDGMIPQGIFASGTQVTGIDGKTHDVSGMSYQQAYENGILEPMHAASYYNYANQWSTGVTNDGWIHDLKYIALREITVGYTFPSNIAGKIGAKRLGVSFSARNLGYLYNSLPNDVNPEGVRGNLSGEFRIRSFDPYTANYTMTINVGF", "soluble on expression in E. coli": "not soluble"},
      {"sequence": "MLKFRTVHGGLRLLGIRRTSTAPAASPNVRRLEYKPIKKVMVANRGEIAIRVFRACTELGIRTVAIYSEQDTGQMHRQKADEAYLIGRGLAPVQAYLHIPDIIKVAKENNVDAVHPGYGFLSERADFAQACQDAGVRFIGPSPEVVRKMGDKVEARAIAIAAGVPVVPGTDAPITSLHEAHEFSNTYGFPIIFKAAYGGGGRGMRVVHSYEELEENYTRAYSEALAAFGNGALFVEKFIEKPRHIEVQILGDQYGNILHLYERDCSIQRRHQKVVEIAPAAHLDPQLRTRLTSDSVKLAKQVGYENAGTVEFLVDRHGKHYFIEVNSRLQVEHTVTEEITDVDLVHAQIHVSEGRSLPDLGLRQENIRINGCAIQCRVTTEDPARSFQPDTGRIEVFRSGEGMGIRLDNASAFQGAVISPHYDSLLVKVIAHGKDHPTAATKMSRALAEFRVRGVKTNIAFLQNVLNNQQFLAGTVDTQFIDENPELFQLRPAQNRAQKLLHYLGHVMVNGPTTPIPVKASPSPTDPVVPAVPIGPPPAGFRDILLREGPEGFARAVRNHPGLLLMDTTFRDAHQSLLATRVRTHDLKKIAPYVAHNFSKLFSMENWGGATFDVAMRFLYECPWRRLQELRELIPNIPFQMLLRGANAVGYTNYPDNVVFKFCEVAKENGMDVFRVFDSLNYLPNMLLGMEAAGSAGGVVEAAISYTGDVADPSRTKYSLQYYMGLAEELVRAGTHILCIKDMAGLLKPTACTMLVSSLRDRFPDLPLHIHTHDTSGAGVAAMLACAQAGADVVDVAADSMSGMTSQPSMGALVACTRGTPLDTEVPMERVFDYSEYWEGARGLYAAFDCTATMKSGNSDVYENEIPGGQYTNLHFQAHSMGLGSKFKEVKKAYVEANQMLGDLIKVTPSSKIVGDLAQFMVQNGLSRAEAEAQAEELSFPRSVVEFLQGYIGVPHGGFPEPFRSKVLKDLPRVEGRPGASLPPLDLQALEKELVDRHGEEVTPEDVLSAAMYPDVFAHFKDFTATFGPLDSLNTRLFLQGPKIAEEFEVELERGKTLHIKALAVSDLNRAGQRQVFFELNGQLRSILVKDTQAMKEMHFHPKALKDVKGQIGAPMPGKVIDIKVVAGAKVAKGQPLCVLSAMKMETVVTSPMEGTVRKVHVTKDMTLEGDDLILEIE", "soluble on expression in E. coli": "not soluble"},
      {"sequence": "MKIFVVGAHGQIGQLLVHRLLDRGDTVTGGYRDPIAQTPDPEKNFRAVELDLSWPVDRLADLYAGHDAIVFAAGSRGQDLLGVDLDGAVKTMKAAERADISRFIMLSALDAEDPDKWPDQLHDYYIVKYYADEWLIHNTDLDYVIVQPTALTNDPAQGSITLQPQRPSSIPRADVADVLVAALDSNRHRDTVKIASGNEAIVKALHVLEHHHHHH", "soluble on expression in E. coli": "not soluble"},
      {"sequence": "MVERYSLSPMKDLWTEEAKYRRWLEVELAVTRAYEELGMIPKGVTERIRNNAKIDVELFKKIEEKTNHDVVAFVEGIGSMIGEDSRFFHYGLTSSDVLDTANSLALVEAGKILLESLKEFCDVLWEVANRYKHTPTIGRTHGVHAEPTSFGLKVLGWYSEMKRNVQRLERAIEEVSYGKISGAVGNYANVPPEVEEKALSYLGLKPEPVSTQVVPRDRHAFYLSTLAIVAAGIERIAVEIRHLQRTEVLEVEEPFRKGQRGSSAMPHKKNPITCERLTGLSRMMRAYVDPSLENIALWHERDISHSSVERYVFPDATQTLYYMIVTATNVVRNMKVNEERMKKNIDLTKGLVFSQRVLLKLIEKGLTRKEAYDIVQRNALKTWNSEKHFLEYLLEDEEVKKLVTKEELEELFDISYYLKHVDHIFERFEKE", "soluble on expression in E. coli": "soluble"},
      {"sequence": "MNQTLLSDFGTPVERVERAIDALRNGRGVMVLDDESRENEGDMVFAAEAMTLEQMALTIRHGSGIVCLCITDERRQQLDLPMMVTHNSSQFQTAFTVTIEAAEGVTTGVSAADRLTTIRKAIADNAKPADLNRPGHVFPLRGQPGGVLSRRGHTEASIDLATLAGYKPAGVLCELTNDDGSMAHAPEVIAFAKLHDMPVVTIDDLAAYLQSRAKKAS", "soluble on expression in E. coli": "not soluble"},
      {"sequence": "MGSDKIHHHHHHMKRTYESGDKMIHTRGKAEGLREKLATILSQDYKELAVQDLKVIGTGVQNIVFRGDSEKGALAFRVPWEREVENINEDLFNSRISLQKEAELSKYCHSKGISVPRIHGLHLSAELDFLISDCVYTDHMPISAHKIGELVSKLHSMPIDDLHYEQNIREPISKYIAERIVKRIEGFNTITNCGMKLPDTKTIEHILSTADHEKSLLHMDIRPANLIGYNGEVKAIVDWDNALIGHPLLELMRIAETNEVSWEEFKDGYKNDSIFNATSHIVSLFYRLDTAVMLANLFIAHLKIEDKGVFYKERVKAIHHEIYKSL", "soluble on expression in E. coli": "not soluble"},
      {"sequence": "MGRGRSSSSSSIESSSKSNPFGASSSTRNLSTDLRLGLSFGTSSGTQYFNGGYGYSVAAPAVEDAEYVAAVEEEEENECNSVGSFYVKVNMEGVPIGRKIDLMSLNGYRDLIRTLDFMFNASILWAEEEDMCNEKSHVLTYADKEGDWMMVGDVPWEMFLSTVRRLKISRANYHY", "soluble on expression in E. coli": "soluble"},
      {"sequence": "MSEPASVPRGAAPGSRGTASPRAVVIGAGLAGMLAAAALHRHAEVTVVDRDVLPAEPAPRKGLPQARHAHLLWSGGARAMEDLLPGVTAAWLAAGARRIPLPTGLVSLSAQGWLRRWPEMEFMISCTRDLLDSVIREQVAKKEGVTLLAGTELLGLEGGALRVTGVRVRTPEGEERVLEADLVVDASGRGSRSVAWLDALGVPQAPMDEVDSGLAYASRIFRAPAGTEDFPVVNVQPDPAQPVPAQSATIVPVEGGRWLVTLSGTHGGQPTASAEEFEAFARGVRDPVVGELIAHAEPLTNVVLTRSTINRRRFFEKVKDWPEGFVAIGDAVATYNPVYGHGMSVAAQGAVALREHVAEHGLAAPGLARRAQRAVALPVKIAWELATGTDIRYPEAIGKQPGGTQKLLGRYVERLMRTATGRPLVAQAFLGVITLSRPLSTLVKPEVLFAVLRGPRRSPLAGPPLTPEERKAVLTAKEPSGTQAAGLEHHHHHH", "soluble on expression in E. coli": "not soluble"},
      {"sequence": "MAAEGKAIAKVNDLVIFVPYVVPGDVVDLQIKRKKNKYAEAEAVKFHELSPVRAVPFCQHYGVCGGCKWQVLPYSEQIRYKQKQVEDNLRRIGKIELPEISPILGSAKTEFYRNKLEFTFSNKRWLTNDEVRQDVKYDQMNAVGFHIPGAFDKVLAIEKCWLQDDISNRIRNAVRDYAYEHDYSFINLRTQEGMLRNLIIRTSSTGELMVIVICKITEDHEMELFKQLLQFIADSFPEITSLLYIINNKCNDTINDLDVHVFKGKDHMFEEMEGLRFKVGPKSFYQTNSEQAYNLYKIAREFAGLTGKELVYDLYTGTGTIANFVSRQARQVIGIEYVPEAIEDAKVNAEINEIKNALFYAGDMKDMLTQEFINQHGRPDVIITDPPRAGMHQDVVDVILFAEPKRIVYVSCNPATQARDLQLLDGKYKVKAVQPVDMFPHTHHVENVVLLELR", "soluble on expression in E. coli": "not soluble"},
      {"sequence": "MSLTYINKEKVIKNLSYAIYLLKKMNFTLIPEVGSNIAESLPFPKDFKDVAALTGRIIKNKLGGFYIVGDIEFGASEHIAKIILSASKFNPEIRACMNIKYDGGLIKLLKDKFAVSSFDRKEEPPNVSTMEWGTKIACEKFGGVPDIIYDRGGEGKEPMIRVLGRDAIEVVKKVEVIQKIYNTLEGHHHHHH", "soluble on expression in E. coli": "soluble"},
      {"sequence": "MTAESGGRDWTGADLAVVVGDYVAQLEKVLAGKPVDRAAHDRTVRFVTGKADGPISWKQGEISAVLSLIGVPILKDQPPRWAYDNALLDAVEEQLAAKPALLAAAVRPAALFTAPSAVPLIEAAPPKPMPMTQRLIQAIQRFDMGSREADDRFLKGLGIASIVAHEARRLSDRGRPDLAGAIRPARGGDPEGCDVISFGLDEIPRLIVVKTTLAGEVAPFGLSQAEYELSRAQPHAFRIRRVYDLLGEARFYRLKPPFGLEHHHHHH", "soluble on expression in E. coli": "not soluble"},
      {"sequence": "MGTLWWNGTFFTMVHEGDQVEAVFTEDGKIVAIGTAEELRQRYSTRINQEMNCDGAYVYPGFVDSHLHMIGLEHHHHHH", "soluble on expression in E. coli": "not soluble"},
      {"sequence": "MYSKIIERELETLKTIFQEASRANTHYEFISVVGKAVSEFLGSEGYRIEWDGRGSAKGNEVVLEIRINTYAKVNLYFPLKKGRKLSKVEEEFLKFVKEVSERIAEKITSYTIYKTLLDSYPFVAYLVEAEPPYPQKILYVTPSLEKWLGWKPEEISKDW", "soluble on expression in E. coli": "not soluble"},
      {"sequence": "MGSDKIHHHHHHMDRSYRTPKAWLTKTSGFLQGYDYSLNPYVGCTFACSYCYVRKMPVALFHKGEWGDWVDIKQGVKETFSNELVRAKKRGRVHLFMSSSTDPYQPVEVEEKVTRSLLEVMADNPPDFLFVQTRSPLVTRDVDILQQLGKRVRVSLTIETDLESVRKAFAPKAPPIQGRKRALHALYQAGIPTQLTVAPILPSSDRFAESYVSIADQVCIDTFELGDGANGKRSRALRMPERLTELGYESWYEEAALEKVHQQFCAHFDESRVKLSQEGFLP", "soluble on expression in E. coli": "not soluble"},
      {"sequence": "MPYLLYHHFDPTFDHQNLKPGLAVGKGKVDHYNLGYVQNVVKGQVLAEFIPIDDTDDPVIDRNHIFEEPLLPVGPNCKVDPDSPLRVVADANGYVFYNDGLITVKRMLNVRRDVDFHTGNIFFVSDIAVHGDVRAGFEVQGNNILVKGIIEGATVRARGSLAVEGGARGSGGSGLLDAGDTLRVPFAESMELRAHGNILIEKFCLHSLVYAATNLVVKNRLQGGTVHCNGLVYVETHLGNPKGTPTATRINMGYDPFTMRKLDRLEQHIRELQDSLTHIAGIAGNLGSDSAPGKRLDNARKKLNRLIRQREALWAALTEDEARAALCRVVVPGTVYPGVEISIGKAFFEVEHEMNNVSFSLADGSIVVTSPAIIKKKALEHHHHHH", "soluble on expression in E. coli": "not soluble"}
    ]}
  ]
}
